This is an account of results in publication PMC4738285 (Scientific Reports, 2016).

The test addresses T1, recombinant human Hsp70 (human, UniProt P0DMV8 1-641).
T1 construct: also called stress-inducible chaperone Hsp70
As to the kind of experiment: other fluorescence titration. Conditions: both partners purified.

T1 sequence (P0DMV8 whole entry): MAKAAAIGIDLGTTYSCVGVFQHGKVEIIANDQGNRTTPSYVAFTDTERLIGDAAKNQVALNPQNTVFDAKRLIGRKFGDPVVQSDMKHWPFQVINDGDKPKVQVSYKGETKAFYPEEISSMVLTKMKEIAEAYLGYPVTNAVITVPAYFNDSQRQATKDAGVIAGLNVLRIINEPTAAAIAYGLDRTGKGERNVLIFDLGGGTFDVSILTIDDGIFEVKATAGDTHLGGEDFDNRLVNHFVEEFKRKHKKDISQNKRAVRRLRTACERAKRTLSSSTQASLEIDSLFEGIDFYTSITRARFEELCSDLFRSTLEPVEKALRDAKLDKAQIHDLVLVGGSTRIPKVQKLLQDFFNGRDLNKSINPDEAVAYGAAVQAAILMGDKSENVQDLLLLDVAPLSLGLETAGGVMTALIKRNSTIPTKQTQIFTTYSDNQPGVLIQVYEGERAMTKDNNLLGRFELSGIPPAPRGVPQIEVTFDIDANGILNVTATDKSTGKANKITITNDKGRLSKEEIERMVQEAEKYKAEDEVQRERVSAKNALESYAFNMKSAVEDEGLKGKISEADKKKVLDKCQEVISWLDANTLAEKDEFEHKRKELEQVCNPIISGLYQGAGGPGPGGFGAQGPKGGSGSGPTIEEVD

What is called IC50 is the concentration at which inhibition is half-maximal. On to NRLLLTG (also called NR peptide) [peptide NRLLLTG], for which the IC50 is 11.5 ± 3.8 µM.
